Measured values from patent publication US20230064978A1, “CYCLIC PEPTIDE RECEPTOR LANTHIONINE SYNTHETASE C-LIKE PROTEIN (LANCL) AND USES THEREOF” (LATERAL IP PTY LTD, priority 2019, published 2023).
Bridges are numbered along the chain shown (N, C = ends). Where no end group is shown, it is not given here.

How the values were obtained:
LANCL1 = LANCL1 (Rattus norvegicus, UniProt Q9QX69); test: Streptavidin pull-down of probe-labelled proteins from spinal cord microsomal fraction, anti-LANCL1 Western Blot; type: binding; parameters: from tissue; host or cells: rat spinal cord, microsomal fraction
LANCL1, sequence (Q9QX69 whole entry): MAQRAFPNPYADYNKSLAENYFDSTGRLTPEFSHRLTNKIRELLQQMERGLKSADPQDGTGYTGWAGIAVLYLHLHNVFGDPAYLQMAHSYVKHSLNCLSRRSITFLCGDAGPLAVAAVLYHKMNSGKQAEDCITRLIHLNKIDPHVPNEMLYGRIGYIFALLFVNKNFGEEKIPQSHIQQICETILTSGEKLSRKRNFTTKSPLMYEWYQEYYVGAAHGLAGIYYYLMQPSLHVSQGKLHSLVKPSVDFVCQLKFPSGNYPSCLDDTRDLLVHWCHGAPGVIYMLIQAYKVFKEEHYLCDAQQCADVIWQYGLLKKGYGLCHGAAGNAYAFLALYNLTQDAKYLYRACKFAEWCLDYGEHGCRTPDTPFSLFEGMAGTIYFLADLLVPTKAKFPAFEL
Experimental: To confirm the LANCL1 enrichment observed by mass spectrometry sequencing pull-down experiments, commercial antibodies to LANCL1 (polyclonal rabbit anti-LANCL1, PA557107 from Invitrogen) were used to identify the presence of the LANCL1 in nerve microsome preparations. Briefly, rat spinal cord were lysed in lysate buffer, (sodium phosphate buffer 5 mM pH7.4, sucrose 0.32M+protease inhibitors (cOmplete ULTRA tablets from Roche, mini easy pack, 05892970001)). All the following steps were done on ice. The samples were homogenized, and the total extract centrifuged at 10000 g during 20 minutes. The supernatant was kept and the lysis step was repeated on the pellet adding 10 ml more of lysis buffer, followed by a new centrifugation step. This step extraction was done two times as described and the supernatants were pooled before centrifugation at 105000 g using the Ti50.2 Beckman rotor for 90 minutes at 4° C. The pellet was kept as a microsomal fraction and stored at −80° C. […] Images acquired with the ChemiDoc™ MP Imaging System were analyzed with Imagelab software (Bio-Rad).

human recombinant LANCL2 = biological target: T1, human recombinant LANCL2 (Homo sapiens, UniProt Q9NS86); test: In-gel fluorescence: photolabelling of recombinant LANCL2 with PAL probe, with or without excess LAT8881; type: binding
T1 construct: human recombinant LANCL2 (amino acid residues 1-450); GST (N); purchased ABCAM ab163277; host or cells: wheat germ
T1 sequence (Q9NS86 1-450): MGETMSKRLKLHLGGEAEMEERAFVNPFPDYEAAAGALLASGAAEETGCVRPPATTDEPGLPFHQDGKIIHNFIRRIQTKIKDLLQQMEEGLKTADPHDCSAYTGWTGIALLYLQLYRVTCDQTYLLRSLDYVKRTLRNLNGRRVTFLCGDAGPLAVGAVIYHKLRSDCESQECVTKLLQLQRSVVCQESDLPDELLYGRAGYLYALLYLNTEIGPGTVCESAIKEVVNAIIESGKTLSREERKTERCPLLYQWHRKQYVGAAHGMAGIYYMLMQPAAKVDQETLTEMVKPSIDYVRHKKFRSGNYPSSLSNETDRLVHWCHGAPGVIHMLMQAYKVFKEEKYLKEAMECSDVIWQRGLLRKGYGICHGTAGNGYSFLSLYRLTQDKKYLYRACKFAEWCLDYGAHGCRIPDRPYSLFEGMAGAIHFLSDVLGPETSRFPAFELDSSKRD
Experimental: An in-gel fluorescence protocol was followed to determine whether the cyclic peptides bound to LANCL2 and LANCL3. Briefly:
1. LANCL2 and LANCL3 Labelling, Assay on 96 Well Plate, Volume of the Reaction 40 μl in PBS
• 1 μg/well of human recombinant LANCL2 (amino acid residues 1-450; ABCAM catalog no. ab163277, ˜0.07 mg/ml; expressed in wheat germ and incorporating an N-terminal GST tag; UniProt Accession no: Q9NS86);
• Vehicle DMSO • ±LAT8881 (a cyclic peptide fragment of human growth hormone; SEQ ID NO:1) • SEQ ID NO:1 as competitor @ 50, 100 or 200 μM, pre-incubation 10 min, 4 μl of a stock solution 10-fold concentrated • ±LAT9991-PAL probes @ 1 μM, incubation 30 min at room temperature on a plate agitator (protected from light), 4 μl of a stock solution @10 μM
• Irradiation @ 365 nm 20 min (4° C., on a support containing ice) • Transfer 40 μl in a clean Eppendorf tube
• Reduction: DTT 10 mM, 30 min @ 56° C. • Alkylation: Iodoacétamide 30 mM, 45 min @ RT Click-iT AzideTamra of 60 μL samples
• Acetone Precipitation −20° C. ON • Dry pellet resuspended in 30 μL 1% SDS in 50 mM Tris-HCl pH 7.5 • Photolabeled LANCL1 was tagged with tetramethylrhodamine (TAMRA) azide @100 μM TAMRA azide by copper click chemistry using the Click-iT Protein Reaction Buffer Kit (ThermoFisher Scientific) for 30 minutes • Precipitation using the chloroform-methanol method, pellet was air-dried for 10 min at room temperature, resuspended in 30 μL SDS loading buffer (Bio Rad XT Sample Buffer containing 2.5% v/v 2-mercaptoethanol) and heated (60° C., 30 min)
• SDS-PAGE (4-15% Criterion™ TGX Stain-Free™ Protein Gel, Bio Rad) • Analyzed by in-gel fluorescence scanning using a ChemiDoc™ MP Imaging System (Bio Rad) with a green LED light as an excitation source and a BP600/20 nm emission filter

Binding of PAL probe to recombinant LANCL2 (human recombinant LANCL2; in-gel fluorescence after UV cross-linking) | Substance | Detection of LANCL1 in eluates of probe pull-down (Western Blot) (LANCL1; 5 μM probe, rat spinal cord microsomal fraction) | LANCL1 level in LAT9991-PAL pull-down eluate in presence of excess competitor (LANCL1; 50 μM competitor, 10-fold excess over LAT9991-PAL) | Inhibition of LAT7771-PAL binding to recombinant LANCL2 by excess competitor (human recombinant LANCL2; probe LAT7771-PAL (as in FIG. 10 legend), excess LAT8881) | Inhibition of LAT9991-PAL binding to LANCL2 by excess competitor (human recombinant LANCL2; probe LAT9991-PAL, excess LAT8881)
binds | LAT9991-PAL: cyclic peptide of SEQ ID NO:12 (LAT9991) conjugated to the PAL (Photo-Activated Labelling) grouping (CRSVEGSCG; disulfide 1-8 (inferred); also: PAL group on N-terminal Cys-Arg part) | could only be detected in the eluates of LAT9991-PAL samples as a specifically bound protein | – | – | –
– | YLRIVQCRSVEGSCGF [LAT8881, a cyclic peptide fragment of human growth hormone] | – | reduced | inhibited | inhibited
